Where two headings read alike, the source gives them in different places.
T1: GAL4 DNA-binding domain alone (empty pAS2-1 vector, negative control bait) (UniProt P04386 1-47, limits assumed)
T1 chain (looked up): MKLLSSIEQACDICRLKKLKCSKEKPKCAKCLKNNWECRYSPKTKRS

B1: hD53 interactor (GAL4 activation domain fused to full-length hD53, pACT2hD53) (other)
chain: ANFNQSGNIADSSLSFTFTNSSNGPNLITTQTNSQALSQPIASSNVHDNFMNNEITASKIDDGNNSKPLSPGWTDQTAYNAFGITTGMFNTTTMDDVYNYLFDDEDTPPNPKKEMEAQAQGLLETEPLQGTDEDAVASADFSSMLSEEEKEELKAELVQLEDEITTLRQVLSAKERHLVEIKQKLGMNLMNELKQNFSKSWHDMQTTTAYKKTHETLSHAGQKATAAFSNVGTAISKKFGDMSYSIRHSISMPAMRNSPTFKSFEERVETTVTSLKTKVGGTNPNGGSFEEVLSSTAHASAQSLAGGSRRTKEEELQC
B2: mD52(95-185) bait (GAL4 DNA-binding domain fused to the C-terminal half of mD52, pAS2-1mD52(95-185)) (other)
chain: MKLLSSIEQACDICRLKKLKCSKEKPKCAKCLKNNWECRYSPKTKRSAYKKTSETLSQAGQKASAAFSSVGSVITKKLEDVKNSPTFKSFEEKVENLKSKVGGAKPAGGDFGEVLNSTANATSTMTTEPPPEQMTESP
notes: range 1-47
B3: hD52 bait (GAL4 DNA-binding domain fused to full-length hD52, pAS2-1hD52) (other)
chain: MKLLSSIEQACDICRLKKLKCSKEKPKCAKCLKNNWECRYSPKTKRSMDRGEQGLLRTDPVPEEGEDVAATISATETLSEEEQEELRRELAKVEEEIQTLSQVLAAKEKHLAEIKRKLGINSLQELKQNIAKGWQDVTATSAYKKTSETLSQAGQKASAAFSSVGSVITKKLEDVKNSPTFKSFEEKVENLKSKVGGTKPAGGDFGEVLNSAANASATTTEPLPEKTQESL
notes: range 1-47; Fusion expressed in yeast; also called pAS2-1D52; full-length hD52 bait

Legend:
[1] = molecular target: T2, mD52 bait (GAL4 DNA-binding domain fused to full-length mD52, pAS2-1mD52) (mouse, UniProt P04386 1-47 (Saccharomyces cerevisiae entry), limits assumed); assay: cell-based or functional assay
[2] = molecular target: B2; assay: cell-based or functional assay
[3] = molecular target: mD52(1-95) bait (GAL4 DNA-binding domain fused to the N-terminal half of mD52, pAS2-1mD52(1-95)) (mouse, UniProt P04386 1-47 (Saccharomyces cerevisiae entry)); assay: cell-based or functional assay
[4] = molecular target: T2, mD52 bait (GAL4 DNA-binding domain …); assay: cell-based or functional assay; remark: listed apart in the source
[5] = molecular target: B3; assay: cell-based or functional assay
[6] = molecular target: T1, GAL4 DNA-binding domain alone (empty …); assay: cell-based or functional assay
[7] = molecular target: hD54-ins2 bait (GAL4 DNA-binding domain fused to hD54-ins2, pAS2-1hD54-ins2) (human, UniProt P04386 1-47 (Saccharomyces cerevisiae entry), limits assumed); assay: cell-based or functional assay
[8] = molecular target: hD54+ins2 bait (GAL4 DNA-binding domain fused to hD54+ins2, pAS2-1hD54+ins2) (human, UniProt P04386 1-47 (Saccharomyces cerevisiae entry), limits assumed); assay: cell-based or functional assay
[9] = molecular target: hD53 bait (GAL4 DNA-binding domain fused to full-length hD53, pAS2-1hD53) (human, UniProt P04386 1-47 (Saccharomyces cerevisiae entry), limits assumed); assay: cell-based or functional assay
[10] = molecular target: eukaryotic initiation factor 4AII library interactor (pAD-GAL4 construct) (human, UniProt P04386 761-881; Q14240 1-407, limits assumed); assay: yeast two-hybrid, retransfection of a library interactor in Hf7c
Protocol: Transformants were plated onto solid SD/-His-Trp-Leu (incorporating 35 mM 3-AT in the case of Y190 transformants) and incubated for up to 14 days at 30° C. […] Colonies which remained His+, and in the case of Y190 co-transformants, were also lacZ+, were re-streaked onto fresh plates to check that all colonies were of uniform phenotype. After 6 days incubation at 30° C., yeast colonies were directly harvested, and plasmid DNA was isolated and used to transfect XL1 Blue. Mini-preparations of plasmid DNA were performed for at least 5 XL1 Blue colonies per transfection, with the results of restriction digests differentiating potential interactors from bait plasmids. […] Phenotypes of resulting co-transfectants were assayed quantitatively and/or qualitatively as described above.

[11] = molecular target: B1; assay: yeast two-hybrid, quantitative β-galactosidase assay in Y190
Protocol: Interactions between baits and interactors were assessed by qualitatively and/or quantitatively determining HIS3 and lacZ reporter gene activity in Y190 co-transfectants. […] For quantitative assessment of interactions, β-galactosidase activity was measured using the substrate o-nitrophenyl β-D-galactopyranoside (ONPG) in liquid cultures (SD/-His-Trp-Leu +35 mM 3-AT) of Y190 co-transfectants.

| Binder | β-galactosidase activity, yeast two-hybrid (Y190) [1] | β-galactosidase activity, yeast two-hybrid (Y190) [2] | β-galactosidase activity, yeast two-hybrid (Y190) [3] | β-galactosidase activity, yeast two-hybrid (Y190) [4] | β-galactosidase activity, yeast two-hybrid (Y190) [5] | β-galactosidase activity, yeast two-hybrid (Y190) [6] | β-galactosidase activity, yeast two-hybrid (Y190) [7] | β-galactosidase activity, yeast two-hybrid (Y190) [8] | β-galactosidase activity, yeast two-hybrid (Y190) [9] | binding result [10] | binding result [11] |
| --- | --- | --- | --- | --- | --- | --- | --- | --- | --- | --- | --- |
| B1 | 5.44 β-galactosidase activity units (positive control = 1000) | 0.5 β-galactosidase activity units (positive control = 1000) | 6.95 β-galactosidase activity units (positive control = 1000) | 6.07 β-galactosidase activity units (positive control = 1000) | 15.2 β-galactosidase activity units (positive control = 1000) | 0 β-galactosidase activity units (positive control = 1000) | 17.6 β-galactosidase activity units (positive control = 1000) | 11.7 β-galactosidase activity units (positive control = 1000) | 18.1 β-galactosidase activity units (positive control = 1000) | – | – |
| B2 | – | – | – | – | – | – | – | – | – | no binding | no binding |
| B3 | – | – | – | – | – | – | – | – | – | no binding | – |
